The record followed here is publication PMC10997794, “Seeding the meiotic DNA break machinery and initiating recombination on chromosome axes” (Nature Communications, 2024).

In the experiment the target is T1, SUMO-His tagged HORMAD1 HORMA (residues 1-235) (mouse, UniProt Q9D5T7 1-235).
T1 construct: HORMAD1, mouse, HORMA domain, amino acids 1-235, from codon-optimized synthetic DNA; also called the HORMA domain of HORMAD1; source: E. coli BL21(DE3), purified (Talon, ion exchange, SEC); not shown: SUMO, N-terminal, kept; His, N-terminal, kept
T1 sequence (looked up): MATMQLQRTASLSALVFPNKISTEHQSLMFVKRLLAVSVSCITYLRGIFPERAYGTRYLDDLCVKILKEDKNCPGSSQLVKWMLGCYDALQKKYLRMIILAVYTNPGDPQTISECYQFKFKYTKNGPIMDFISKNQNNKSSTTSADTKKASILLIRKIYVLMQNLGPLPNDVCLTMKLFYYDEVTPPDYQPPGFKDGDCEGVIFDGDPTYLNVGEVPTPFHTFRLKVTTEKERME
The experiment is described as follows: pull-down; amylose pull-down; MBP-tagged IHO1 truncations as baits at 1 µM with 12 µM SUMO-His HORMAD1 HORMA; 20 mM HEPES pH 7.5, 100 mM NaCl, 5% glycerol, 1 mM TCEP, 0.1% Tween20; 8 °C; Coomassie and immunoblot. The settings on record: both partners purified.

B1: MBP-tagged IHO1 truncation, residues 359-574 (domain or fragment, mouse, UniProt Q6PDM4 359-574, looked up)
chain: KNWVMTTRSVSNHFSNLPSQRAGNGQGLMAQGASQRDVSKFEARVKNACPEYGPQSMCSFDSLEQSATEQKGRPCRKRRRGKKQQPQRSKRGGLLDRKQGQTSKAACAFIARHHCPQSPVCDPQGPLICWLTPRSSTKSTCHILGGTGETSQTARAAQGNLVQHSQRSSTDSSSQGDQQINWFSDLSLENLEPPQCKKGGTNLLCDPDFDSSDDNF
notes: The MBP tag is 3C HRV cleavable but was kept for the amylose pull-down; source: High Five insect cells (baculovirus), purified (MBP-trap, Resource Q, Superdex200); not shown: MBP, N-terminal, kept
On to B1, for which the binding result was “binds”.
